# Source: US8257698B2, “Protein engineering of monoacylglycerol lipase (MGLL)” (Janssen Pharmaceutica N.V., priority 2008, dated 2012)
# B1: mut-MGLL. 1-303, L169S, L176S: engineered human MGLL 1-303 with cap-domain mutations L169S, L176S; SEQ ID NO: 4, SEQ ID NO: 5 after TEV cleavage (protein)
# chain: MVDHHHHHHENLYFQGMPEESSPRRTPQSIPYQDLPHLVNADGQYLFCRYWKPTGTPKALIFVSHGAGEHSGRYEELARMLMGLDLLVFAHDHVGHGQSEGERMVVSDFHVFVRDVLQHVDSMQKDYPGLPVFLLGHSMGGAIAILTAAERPGHFAGMVLISPLVLANPESATTFKVLAAKVLNSVLPNLSSGPIDSSVLSRNKTEVDIYNSDPLICRAGLKVCFGIQLLNAVSRVERALPKLTVPFLLLQGSADRLCDSKGAYLLMELAKSQDKTLKIYEGAYHVLHKELPEVTNSVFHEINMWVSQRTATAGTASPP
# modifications: His tag and TEV site; SEQ ID 5 after TEV cleavage; Human
# Tests used:
# [1] = tested on: MGLL; test: Kinetic analysis: hydrolysis of Coumarin Arachidonate (C-A) by MGLL constructs; assay type: biochemical, human; conditions: estimated; limited by solubility of C-A; read-out: apparent KM for C-A
# Source text: (§1) A small fluorescent substrate, 4-methyl coumarin butyrate (4MC-B) was used to compare the activity of the engineered mutants to the activity of wt-MGLL (hMGLL 1-303) (SEQ ID NO: 3). The catalytic efficiency (kcat/KM) for the hydrolysis of the 4MC-B was similar for wt-MGLL (hMGLL 1-303) (SEQ ID NO: 3) and all MGLL mutants tested (Table 2). A larger more aliphatic fluorescent substrate, Coumarin Arachidonate (C-A), structurally more closely related to the MGLL natural substrate, 2-AG, was used to compare the activity of wt-MGLL (hMGLL 1-303) (SEQ ID NO: 3) to TEV cleaved mut-MGLL (hMGLL 1-303 L169S, L176S) (SEQ ID NO: 5).
# (§2) The Michaelis-Menten parameters for the hydrolysis of 4-methylcoumarin butyrate (4MC-B) and coumarin arachidonate (C-A) substrate were determined using 4-5 nM of MGLL in 20 mM Pipes pH 7 and 150 mM NaCl at 37° C. The change in fluorescence due to substrate hydrolysis was monitored using excitation/emission wavelengths of 335/440 in a Safire II instrument from Tecan. The hyperbolic rates versus substrate concentration curves for the hydrolysis of 4MC-B were fit to the Michaelis-Menten equation using Excel.
# The apparent kcat/KM ratio for the hydrolysis of C-A was determined at [S]<<KM. […] The kcat/KM values reported are the average from independent values determined from five substrate concentrations ranging from 700 to 40 nM.
# [2] = tested on: MGLL; test: Kinetic analysis: hydrolysis of 4-methyl coumarin butyrate (4MC-B) by MGLL constructs; assay type: biochemical, human; conditions: substrate 4MC-B; 4-5 nM MGLL, 20 mM Pipes pH 7, 150 mM NaCl, 37° C.; average of 2 or 4 separate assays
# Source text: as §1, §2
# [3] = Thermofluor thermal stability (melting transition) of MGLL; assay type: physicochemical
# Source text: The Thermofluor® assay is a powerful tool to screen for small molecule inhibitors interacting with a protein's active site or allosteric site. The assay detects small changes in the intrinsic melting temperature of proteins based on binding of ligands. Compounds that interact preferentially with the native form of the protein will increase the Tm, the temperature at which half of the protein is unfolded (Pantoliano et al. 2001). The technique monitors changes in the fluorescent intensity of dyes such as 1-anilinonaphthalene-8-sulfonic acid (1,8-ANS). The fluorescent dyes are quenched in aqueous environments but increase in fluorescence on binding to the hydrophobic core of denatured proteins.
# Thermofluor® assays were conducted to characterize wt-MGLL (hMGLL 1-303) (SEQ ID NO: 3) and mut-MGLL (hMGLL 1-303 L169S, L176S) and evaluate if the MGLL mutants could be used for high-throughput screening using Thermofluor®. Three microliters of protein at a concentration of 0.05 mg/ml in 50 mM Pipes pH 7, 200 mM NaCl, 100 μM 1,8-ANS, and 0.001% Tween was added to pre-dispensed compound plates. Wells were overlaid with silicone oil (1 μL, Fluka, type DC 200) to prevent evaporation. Final compound concentrations varied from 150 to 0.15 μM. Assay plates were heated at a rate of 1° C./min for all experiments over a temperature range sufficient to measure protein unfolding. Fluorescence was measured by continuous illumination with UV light (Hamamatsu LC6) supplied via fiber optic and filtered through a custom band-pass filter (380-400 nm; >60D cutoff). Fluorescence emission was detected by measuring light intensity using a CCD camera (Sensys, Roper Scientific) filtered to detect emission at 500±25 nm, resulting in simultaneous and independent readings of all 384 wells. One or more images were collected at each temperature, and the sum of the pixel intensity in a given area of the assay plate was recorded vs temperature, and fit to standard equations to yield the Tm.
# [4] = Circular dichroism structural analysis; assay type: physicochemical; conditions: 5 μM protein, 10 mM cacodylic acid pH 7, 140 mM NaCl
# Description: Circular dichroism experiments were performed on a Circular Dichroism Spectrometer Model 202 from Aviv Instruments Inc. The CD scans of wt-MGLL (hMGLL 1-303) (SEQ ID NO: 3) and TEV cleaved mut-MGLL (hMGLL 1-303 L169S, L176S) (SEQ ID NO: 5) (5 μM protein in 10 mM cacodylic acid pH 7 and 140 mM NaCl) were measured from 200 to 260 nm. Temperature melts were monitored at 210 nm.
# [5] = Size exclusion chromatography of MGLL purified in the absence of detergent (aggregation/monomer); assay type: physicochemical; conditions: size exclusion, purified in the absence of detergent
# Description: A pilot purification of wt-MGLL (hMGLL 1-303) (SEQ ID NO: 3), performed in the complete absence of detergent, generated no protein (data not shown). A second purification of wt-MGLL (hMGLL 1-303) (SEQ ID NO: 3) was done with detergent in the lysis buffer only. Frozen cell pellets for wt-MGLL (hMGLL 1-303) (SEQ ID NO: 3) were thawed, resuspended, and lysed in Bugbuster® lysis buffer for 1 hour at 4° C. Bugbuster® lysis buffer is a proprietary lysis buffer from […] that contains detergent. The lysate was clarified by centrifugation at 40,000×g for 1 hr. No detergent was added at this point or during the rest of the purification. From this point forward, the purification protocol and buffers were the same as described below for mut-MGLL. An average of 2.2 mg of wt-MGLL (hMGLL 1-303) (SEQ ID NO: 3) per liter of cell culture was obtained.
# Mutant MGLL (mut-MGLL) constructs were purified in the absence of detergent. Frozen cell pellets were thawed and resuspended in buffer A (50 mM Hepes buffer pH 7.5, 400 mM NaCl, 5% glycerol, 0.05% BME, 1× Complete EDTA-free protease inhibitor cocktail tablets (Roche)), dounce homogenized and mechanically lysed with a microfluidizer processor (Microfluidics). The extract was clarified by centrifugation at 40,000×g for 1 hr. The cleared lysate was loaded on a 1 ml His-Trap FF Crude column (GE-Healthcare) at 4° C. using the AktaXpress system. For larger preparations, a 5 ml His-Trap FF Crude column was used. The column was washed with 10-15 column volumes (CV) of buffer A containing 30 mM imidazole and mut-MGLL was eluted with 5 CV of 50 mM Hepes buffer pH 7.5, 400 mM NaCl, 5% glycerol, 0.05% BME, 400 mM imidazole. In most preparations, 30 mM imidazole was included in Buffer A from the beginning of the preparation to reduce non-specific binding on the His-Trap column. […] Fractions were analysed by SDS-PAGE. […] Purification yields were determined by Bradford assay using the protein assay kit from BioRad according to manufacturer's instruction with BSA as a standard (Bradford 1976).
Molecule,Km [1] [µM],Kcat [2] [s⁻¹],Km [2] [µM],quality of the melting transition [3],"Tm (midpoint of the melting transition) ([3]; 0.05 mg/ml protein, 1,8-ANS) [°C]",CD scans 200 to 260 nm compared with wt-MGLL purified in the presence of detergent [4],monomer [5] [%]
"CCCCC/C=C/C/C=C\C/C=C/C/C=C/CCCC(=O)Oc1ccc2ccc(=O)oc2c1 [C-A, Coumarin Arachidonate]",> 30,–,–,–,–,–,–
B1,–,0.8,136,strong transition,56.7,similar,90
